The values below come from patent US20140057830A1 (COMPLIX, published 2014).

Substitutions are numbered along the chain they refer to.

The assay concerns the target T1, human IL-23 (human, UniProt Q9NPF7 20-189; P29460 23-328).
T1 construct: Heterodimer p19/p40; in the ELISA captured on the plate through a biotinylated anti-p40 antibody (clone C8.6); also called cytokine IL-23 (eBioscience, 34-8239-85)
T1 sequence (looked up) 1: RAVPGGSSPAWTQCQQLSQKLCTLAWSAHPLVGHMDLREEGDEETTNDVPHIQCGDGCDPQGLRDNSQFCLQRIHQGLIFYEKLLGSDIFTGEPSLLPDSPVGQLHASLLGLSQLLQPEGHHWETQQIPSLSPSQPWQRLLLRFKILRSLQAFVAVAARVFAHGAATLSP
T1 sequence (looked up) 2: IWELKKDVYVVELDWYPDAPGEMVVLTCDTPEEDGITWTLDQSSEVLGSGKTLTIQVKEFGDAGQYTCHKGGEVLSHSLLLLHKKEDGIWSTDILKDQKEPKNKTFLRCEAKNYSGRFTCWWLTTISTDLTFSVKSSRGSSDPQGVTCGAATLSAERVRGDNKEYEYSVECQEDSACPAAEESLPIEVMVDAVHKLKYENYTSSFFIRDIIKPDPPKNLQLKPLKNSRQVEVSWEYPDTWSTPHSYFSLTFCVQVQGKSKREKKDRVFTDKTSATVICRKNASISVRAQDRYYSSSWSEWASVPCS
Briefly: phage ELISA; IL-23 captured by anti-p40 antibody. The protocol: The set-up of the ELISA was as follows. Neutravidin was immobilized on the plate at a concentration of 0.010 mg/ml in PBS (0.100 ml) for 1 hour at room temperature (RT). Plates were washed 5 times with PBS containing 0.05% Tween 20 (PBST) for 5 min. Subsequently, 0.1 ml Biotinylated anti-p40 antibody (100 nM) was added to the plates in PBS containing 0.1% BSA and incubated overnight at 4° C. or at RT for 1 hour. After incubation, plates were washed 5 times with PBST and blocked with PBS containing 0.1% BSA and 0.5% gelatin (0.120 ml/well) for at least 1 hour at room temperature or overnight at 4° C. After washing 5 times with PBST, 100 nM IL-23 (target) was added to 0.1 ml PBS, 0.1% BSA. For individual negative controls no IL-23 was added (background).
In the meantime, the bacteria plates were centrifuged at 1700 rpm for 10 min to pellet the bacteria. Plates with the immobilized IL-23 were washed 5 times with PBST and 0.050 ml of PBS with 0.2% BSA were added to the plate together with 0.050 ml of the bacterial culture supernatant containing phage. Plates were incubated for 1 to 1.5 hours at room temperature while shaking. Shaking of the plates enhanced the ELISA signals.
For orientation: ELISA stands for enzyme-linked immunosorbent assay.

B1: SEQ ID NO 38 (designed binder)
chain: GSIEQIQKFIASIQESIARIQKSIYAMTGGSGGSGGGSIEQIQKQIAAIQKQIAAIQKQIYAMTGSGGGGSGGSIEQIQKQITAIARQIVAIIVQITAMTP
notes: Alphabody, AC12 library clone
For B1, the binding result was “binds”.

B2: SEQ ID NO 13 (designed binder)
chain: B1 chain with F9R, S12P, S16C, R19F, S23L, A86G, V90M, I93F, V94I, T97W
notes: Alphabody, AC12 library clone
For B2, the binding result is recorded as “binds”.

B3: SEQ ID NO 4 (designed binder)
chain: GSIEQIQKTIAMIQEYIAWIQKKIYAMTGGSGGSGGGSIEQIQKQIAAIQKQIAAIQKQIYAMTGSGGGGSGGSIEQIQKQIRAIVGQIMAILRQITAMTP
notes: Alphabody, AC12 library clone
B3: the binding result was “binds”.

B4: SEQ ID NO 59 (designed binder)
chain: B1 chain with F9W, S12L, S16K, S23D, T83N, R87G, V90L, I93A, V94T, T97M
notes: Alphabody, AC12 library clone
In the case of B4, the binding result is “binds”.

B5: SEQ ID NO 47 (designed binder)
chain: GSIEQIQKKIAGIQEVIALIQKFIYAMTGGSGGSGGGSIEQIQKQIAAIQKQIAAIQKQIYAMTGSGGGGSGGSIEQIQKQIRAISSQIQAIVLQILAMTP
notes: Alphabody, AC12 library clone
With B5, the binding result is “binds”.

B6: SEQ ID NO 42 (designed binder)
chain: B1 chain with F9V, S12P, S16Y, R19I, S23Y, T83S, A86M, V90Y, V94S, T97Q
notes: Alphabody, AC12 library clone
With B6, the binding result is given as “binds”.

B7: SEQ ID NO 61 (designed binder)
chain: B5 chain with K9R, V16Y, L19K, F23S, R83S, S87R, Q90V, L94S
notes: Alphabody, AC12 library clone
For the molecule B7, the binding result is on record as “binds”.

B8: SEQ ID NO 20 (designed binder)
chain: B1 chain with F9V, S12R, S16V, R19S, S23Y, T83G, A86V, R87T, V90L, V94S
notes: Alphabody, AC12 library clone
As to B8, the binding result was “binds”.

B9: SEQ ID NO 33 (designed binder)
chain: GSIEQIQKGIAPIQEMIASIQKVIYAMTGGSGGSGGGSIEQIQKQIAAIQKQIAAIQKQIYAMTGSGGGGSGGSIEQIQKQIMAIAFQIFAIMRQILAMTP
notes: Alphabody, AC12 library clone
For the molecule B9, the binding result is listed as “binds”.

B10: SEQ ID NO 23 (designed binder)
chain: B1 chain with S16C, S23T, T83K, A86R, R87T, V90F, I93F, V94R, T97Y
notes: Alphabody, AC12 library clone
As to B10, the binding result is “binds”.

B11: SEQ ID NO 40 (designed binder)
chain: B1 chain with F9G, S12I, S16T, R19Y, V90T, V94A, T97F
notes: Alphabody, AC12 library clone
In the case of B11, the binding result was “binds”.

B12: SEQ ID NO 27 (designed binder)
chain: B1 chain with F9W, S12Q, S16N, R19D, S23L, T83P, R87Y, V90L, V94R, T97S
notes: Alphabody, AC12 library clone
On to B12, for which the binding result is “binds”.

B13: SEQ ID NO 5 (designed binder)
chain: B1 chain with S12N, S16L, R19C, S23N, R87S, V90Y, I93V, V94A
notes: Alphabody, AC12 library clone
Regarding B13, the binding result is given as “binds”.

B14: SEQ ID NO 2 (designed binder)
chain: GSIEQIQKGIARIQEVIAKIQKGIYAMTGGSGGSGGGSIEQIQKQIAAIQKQIAAIQKQIYAMTGSGGGGSGGSIEQIQKQIVAITHQITAIIWQIWAMTP
notes: Alphabody, AC12 library clone
As for B14, the binding result is recorded as “binds”.

B15: SEQ ID NO 64 (designed binder)
chain: B14 chain with G9V, V16P, K19V, G23M, V83S, T86R, H87S, T90L, W94R, W97F
notes: Alphabody, AC12 library clone
As to B15, the binding result is “binds”.

B16: SEQ ID NO 29 (designed binder)
chain: B1 chain with F9L, S12R, R19M, S23K, T83I, R87K, V90L, I93V, V94S, T97K
notes: Alphabody, AC12 library clone
On to B16, for which the binding result is given as “binds”.

B17: SEQ ID NO 9 (designed binder)
chain: B14 chain with G9K, R12T, V16Y, K19Y, G23F, V83K, T86L, H87G, T90G, W94G
notes: Alphabody, AC12 library clone
With B17, the binding result is “binds”.

B18: SEQ ID NO 3 (designed binder)
chain: B1 chain with F9R, S12F, S16T, R19W, S23N, T83S, V90R, I93L, V94G, T97F
notes: Alphabody, AC12 library clone
B18: the binding result is reported as “binds”.

B19: SEQ ID NO 19 (designed binder)
chain: B3 chain with M12A, Y16C, W19R, K23A, G87S, M90S, R94I, T97G
notes: Alphabody, AC12 library clone
For B19, the binding result is “binds”.

B20: SEQ ID NO 25 (designed binder)
chain: GSIEQIQKYIARIQEKIAYIQKMIYAMTGGSGGSGGGSIEQIQKQIAAIQKQIAAIQKQIYAMTGSGGGGSGGSIEQIQKQIIAIGSQILAILDQIYAMTP
notes: Alphabody, AC12 library clone
Regarding B20, the binding result is “binds”.

B21: SEQ ID NO 18 (designed binder)
chain: B5 chain with K9T, G12S, L19A, F23Y, R83A, S86G, Q90I, L94R, L97R
notes: Alphabody, AC12 library clone
As to B21, the binding result is reported as “binds”.

B22: SEQ ID NO 43 (designed binder)
chain: B3 chain with T9L, M12S, W19T, K23L, R83S, V86M, G87I, M90N, R94G, T97F
notes: Alphabody, AC12 library clone
With B22, the binding result is “binds”.

B23: SEQ ID NO 70 (designed binder)
chain: B9 chain with G9C, P12F, M16R, S19G, V23R, M83F, A86G, F87K, M93V, R94K
notes: Alphabody, AC12 library clone
Regarding B23, the binding result is listed as “binds”.

B24: SEQ ID NO 36 (designed binder)
chain: B1 chain with S12P, S16Y, R19A, S23I, T83A, R87S, V90K, I93V, V94T, T97V
notes: Alphabody, AC12 library clone
Take B24: the binding result was “binds”.

B25: SEQ ID NO 22 (designed binder)
chain: B1 chain with F9M, S12P, S16L, S23D, T83G, A86T, V90L, I93L, T97G
notes: Alphabody, AC12 library clone
Regarding B25, the binding result was “binds”.

B26: SEQ ID NO 26 (designed binder)
chain: B3 chain with T9L, M12V, W19L, R83K, V86A, G87T, M90S, L93I, T97F
notes: Alphabody, AC12 library clone
Take B26: the binding result was “binds”.

B27: SEQ ID NO 67 (designed binder)
chain: B9 chain with G9V, P12W, M16S, V23R, M83Q, F87N, F90T, M93V, L97I
notes: Alphabody, AC12 library clone
On to B27, for which the binding result is recorded as “binds”.

B28: SEQ ID NO 31 (designed binder)
chain: B3 chain with M12R, Y16G, W19V, K23L, G87R, M90T, L93M, R94T, T97F
notes: Alphabody, AC12 library clone
Consider B28, for which the binding result is recorded as “binds”.

B29: SEQ ID NO 6 (designed binder)
chain: B3 chain with T9G, M12L, Y16W, K23S, R83L, V86S, G87L, R94E, T97M
notes: Alphabody, AC12 library clone
Regarding B29, the binding result is “binds”.

B30: SEQ ID NO 8 (designed binder)
chain: B20 chain with R12P, K16I, Y19K, M23L, I83G, G86I, L90G, D94G
notes: Alphabody, AC12 library clone
Take B30: the binding result was “binds”.

B31: SEQ ID NO 50 (designed binder)
chain: B1 chain with F9A, S12K, S16T, R19F, R87G, V90Y, I93L, V94Q, T97F
notes: Alphabody, AC12 library clone
In the case of B31, the binding result was “binds”.

B32: SEQ ID NO 10 (designed binder)
chain: B14 chain with G9K, R12V, K19G, V83S, T86I, H87I, I93V, W94K, W97M
notes: Alphabody, AC12 library clone
With B32, the binding result was “binds”.

B33: SEQ ID NO 71 (designed binder)
chain: B9 chain with G9P, P12A, M16K, S19R, V23R, A86N, F87R, F90L, M93L
notes: Alphabody, AC12 library clone
As for B33, the binding result is reported as “binds”.

B34: SEQ ID NO 65 (designed binder)
chain: B9 chain with G9T, P12K, M16R, S19W, M83K, A86S, F87Y, F90I
notes: Alphabody, AC12 library clone
Turning to B34, the binding result is listed as “binds”.
